Results from the supplement of paper PMC7877785.
± gives the uncertainty stated by the source.

Assay: self-splicing fitness, log relative to wild type (ln ratio); higher = more splicing; Tetrahymena group I intron in knt gene, E. coli kanamycin selection, DiMSum; sequences stand for … in CUCUCU…GGAGGGAAAAGUUAUCAGGCAUGCACCUGGUAGCUAGUCUUUAAACCAAUAGAUUGCAUCGGUUUAAAAGGCAAGACCGUCAAAUUGCGGGAAAGGGGUCAACAGCCGUUCAGUACCAAGUCUCAGGGGAAACUUUGAGAUGGCCUUGCAAAGGGUAUGGUAAUAAGCUGACGGACAUGGUCCUAACCACGCAGCCAAGUCCUAAGUCAACAGAUCUUCUGUUGAUAUGGAUGCAGUUCACAGACUAAAUGUCGGUCGGGGAAGAUGUAUUCUUCUCAUAAGAUAUAGUCGGACCUCUCCUUAAUGGGAGCUAGCGGAUGAAGUGAUGCAACACUGGAGCCGCUGGGAACUAAUUUGUAUGCGAAAGUAUAUUGAUUAGUUUUGGAGUACUCGUGGUCG
Procedure, shortened: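 A randomised library covering all eight P1ex-region intron nucleotides was built with the intron in the knt kanamycin-resistance gene on pET-22b(+) and held in E. coli BL21(DE3). Cells were grown overnight at 37°C or 30°C on LB agar, with or without 25 μg/mL kanamycin, plus 100 μg/mL carbenicillin, 50 μM IPTG and 0.2% rhamnose, and pooled colonies were amplicon-sequenced on an Illumina HiSeq 2500. DiMSum fitness is the error-weighted combination of wild-type-normalised replicate fold changes, kanamycin versus none.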

Sequence: CGAUAGCAAUAUUACGAUGC
- self-splicing fitness (ln) (30 °C): -4.1 ± 0.21
- self-splicing fitness (ln) (37 °C): -1.81 ± 0.15

Sequence: GCGCAGCAAUAUUACGUAGC
- self-splicing fitness (ln) (30 °C): -1.95 ± 0.11
- self-splicing fitness (ln) (37 °C): -0.709 ± 0.12

Sequence: UGAUAGCAAUAUUACGCACG
- self-splicing fitness (ln) (30 °C): -1.41 ± 0.3
- self-splicing fitness (ln) (37 °C): -0.216 ± 0.19

Sequence: AGUGAGCAAUAUUACGGCGU
- self-splicing fitness (ln) (30 °C): -1.08 ± 0.071
- self-splicing fitness (ln) (37 °C): -0.465 ± 0.084

Sequence: GUUAAGCAAUAUUACGUUGG
- self-splicing fitness (ln) (30 °C): -2.45 ± 0.14
- self-splicing fitness (ln) (37 °C): -1.19 ± 0.15

Sequence: UAGGAGCAAUAUUACGCAGG
- self-splicing fitness (ln) (30 °C): -2 ± 0.21

Sequence: GGCUAGCAAUAUUACGACCA
- self-splicing fitness (ln) (30 °C): -1.49 ± 0.3
- self-splicing fitness (ln) (37 °C): -1.43 ± 0.31

Sequence: GUAAAGCAAUAUUACGCGGU
- self-splicing fitness (ln) (30 °C): -2.79 ± 0.12
- self-splicing fitness (ln) (37 °C): -1.87 ± 0.15

Sequence: GCCAAGCAAUAUUACGGCAG
- self-splicing fitness (ln) (30 °C): -3.71 ± 0.19
- self-splicing fitness (ln) (37 °C): -2.54 ± 0.23

Sequence: UCUAAGCAAUAUUACGUUUC
- self-splicing fitness (ln) (37 °C): -2.3 ± 0.26

Sequence: AUACAGCAAUAUUACGAGCA
- self-splicing fitness (ln) (30 °C): -2.04 ± 0.24
- self-splicing fitness (ln) (37 °C): -1.91 ± 0.23

Sequence: AAUAAGCAAUAUUACGUCUA
- self-splicing fitness (ln) (30 °C): -0.766 ± 0.077
- self-splicing fitness (ln) (37 °C): 0.434 ± 0.1

Sequence: CCCAAGCAAUAUUACGAACA
- self-splicing fitness (ln) (30 °C): -3.02 ± 0.27
- self-splicing fitness (ln) (37 °C): -3.04 ± 0.26

Sequence: UCCCAGCAAUAUUACGAAUG
- self-splicing fitness (ln) (30 °C): -2.98 ± 0.15
- self-splicing fitness (ln) (37 °C): -2.61 ± 0.17

Sequence: GGUCAGCAAUAUUACGGUUU
- self-splicing fitness (ln) (30 °C): -0.421 ± 0.074
- self-splicing fitness (ln) (37 °C): 0.264 ± 0.099

Sequence: UCGGAGCAAUAUUACGUUUA
- self-splicing fitness (ln) (30 °C): -2.32 ± 0.29
- self-splicing fitness (ln) (37 °C): -2.35 ± 0.42

Sequence: GCUGAGCAAUAUUACGGUGU
- self-splicing fitness (ln) (30 °C): -2.14 ± 0.077
- self-splicing fitness (ln) (37 °C): -1.8 ± 0.091

Sequence: CUAGAGCAAUAUUACGCCAC
- self-splicing fitness (ln) (37 °C): -3.44 ± 0.47

Sequence: CCGGAGCAAUAUUACGAAUC
- self-splicing fitness (ln) (30 °C): -4.01 ± 0.46

Sequence: CUACAGCAAUAUUACGGUCA
- self-splicing fitness (ln) (30 °C): -3.37 ± 0.28
- self-splicing fitness (ln) (37 °C): -1.96 ± 0.24

Sequence: UACUAGCAAUAUUACGGCCG
- self-splicing fitness (ln) (30 °C): 0.508 ± 0.14
- self-splicing fitness (ln) (37 °C): 0.00712 ± 0.17

Sequence: CUAAAGCAAUAUUACGUGCA
- self-splicing fitness (ln) (30 °C): -2.77 ± 0.2
- self-splicing fitness (ln) (37 °C): -1.91 ± 0.18

Sequence: GGCUAGCAAUAUUACGAGUC
- self-splicing fitness (ln) (37 °C): -1.08 ± 0.26

Sequence: GCCUAGCAAUAUUACGCGAU
- self-splicing fitness (ln) (30 °C): -3.87 ± 0.24
- self-splicing fitness (ln) (37 °C): -1.68 ± 0.16

Sequence: GUUCAGCAAUAUUACGAUAC
- self-splicing fitness (ln) (30 °C): -0.948 ± 0.078
- self-splicing fitness (ln) (37 °C): -0.47 ± 0.13

Sequence: GCUUAGCAAUAUUACGAGCG
- self-splicing fitness (ln) (30 °C): -2.44 ± 0.26
- self-splicing fitness (ln) (37 °C): -1.1 ± 0.16

Sequence: CUACAGCAAUAUUACGAGUU
- self-splicing fitness (ln) (30 °C): -4.98 ± 0.2
- self-splicing fitness (ln) (37 °C): -2.76 ± 0.17

Sequence: AUAGAGCAAUAUUACGUACA
- self-splicing fitness (ln) (30 °C): -1.62 ± 0.098
- self-splicing fitness (ln) (37 °C): -0.944 ± 0.12

Sequence: AUGCAGCAAUAUUACGCCAC
- self-splicing fitness (ln) (30 °C): -2.31 ± 0.47
- self-splicing fitness (ln) (37 °C): -2.1 ± 0.36

Sequence: UCACAGCAAUAUUACGUGAU
- self-splicing fitness (ln) (30 °C): -3.64 ± 0.12
- self-splicing fitness (ln) (37 °C): -2.76 ± 0.15

Sequence: CAUCAGCAAUAUUACGACUA
- self-splicing fitness (ln) (30 °C): -1.26 ± 0.13
- self-splicing fitness (ln) (37 °C): -0.0399 ± 0.13

Sequence: UGGCAGCAAUAUUACGCAAA
- self-splicing fitness (ln) (30 °C): -1.87 ± 0.23
- self-splicing fitness (ln) (37 °C): -0.513 ± 0.26

Sequence: UCCAAGCAAUAUUACGAGUU
- self-splicing fitness (ln) (30 °C): -3.75 ± 0.28
- self-splicing fitness (ln) (37 °C): -1.33 ± 0.2

Sequence: CUCAAGCAAUAUUACGUUCC
- self-splicing fitness (ln) (30 °C): -3.08 ± 0.32
- self-splicing fitness (ln) (37 °C): -2.32 ± 0.26

Sequence: ACCUAGCAAUAUUACGGGUG
- self-splicing fitness (ln) (30 °C): -1.47 ± 0.071
- self-splicing fitness (ln) (37 °C): -1.1 ± 0.087

Sequence: GGAGAGCAAUAUUACGUGUG
- self-splicing fitness (ln) (30 °C): -4.29 ± 0.34
- self-splicing fitness (ln) (37 °C): -3.29 ± 0.27

Sequence: GGGCAGCAAUAUUACGCGAG
- self-splicing fitness (ln) (30 °C): -0.948 ± 0.094
- self-splicing fitness (ln) (37 °C): -0.664 ± 0.098

Sequence: AGGUAGCAAUAUUACGAAUA
- self-splicing fitness (ln) (30 °C): -2.28 ± 0.026
- self-splicing fitness (ln) (37 °C): -1.51 ± 0.037

Sequence: CUCGAGCAAUAUUACGCUGG
- self-splicing fitness (ln) (30 °C): -4.31 ± 0.24
- self-splicing fitness (ln) (37 °C): -3.22 ± 0.22

Sequence: CCGGAGCAAUAUUACGCAAU
- self-splicing fitness (ln) (30 °C): -2.59 ± 0.36

Sequence: ACUAAGCAAUAUUACGGUUG
- self-splicing fitness (ln) (30 °C): -3.25 ± 0.2
- self-splicing fitness (ln) (37 °C): -2.5 ± 0.21

Sequence: UAACAGCAAUAUUACGCAGU
- self-splicing fitness (ln) (30 °C): -3.43 ± 0.19
- self-splicing fitness (ln) (37 °C): -3.5 ± 0.27

Sequence: UACCAGCAAUAUUACGCCCA
- self-splicing fitness (ln) (30 °C): -0.817 ± 0.1
- self-splicing fitness (ln) (37 °C): -0.342 ± 0.14

Sequence: ACGAAGCAAUAUUACGUCUC
- self-splicing fitness (ln) (30 °C): -3.62 ± 0.12
- self-splicing fitness (ln) (37 °C): -1.55 ± 0.087

Sequence: UUUGAGCAAUAUUACGGUUC
- self-splicing fitness (ln) (30 °C): -3.67 ± 0.37
- self-splicing fitness (ln) (37 °C): -3.69 ± 0.46

Sequence: CACAAGCAAUAUUACGACAC
- self-splicing fitness (ln) (30 °C): -3.12 ± 0.11
- self-splicing fitness (ln) (37 °C): -2.59 ± 0.12

Sequence: UGUCAGCAAUAUUACGCCCA
- self-splicing fitness (ln) (30 °C): 0.0616 ± 0.14
- self-splicing fitness (ln) (37 °C): 0.348 ± 0.18

Sequence: GGGAAGCAAUAUUACGUCUC
- self-splicing fitness (ln) (30 °C): -3.97 ± 0.37
- self-splicing fitness (ln) (37 °C): -3 ± 0.35

Sequence: CACAAGCAAUAUUACGGGGA
- self-splicing fitness (ln) (30 °C): -2.64 ± 0.11
- self-splicing fitness (ln) (37 °C): -1.69 ± 0.1
